Assay results reported in article PMC7215387, “Comparison of Target Recognition by TRAF1 and TRAF2” (International Journal of Molecular Sciences, 2020).

Columns and labels:
TRAF1 [1] = molecular target: T1, TRAF1 (Homo sapiens, UniProt Q13077); test: Native-PAGE complex formation with TRAF1; assay type: binding; conditions: 8% to 25% acrylamide gradient gels, Coomassie; 1 h at 4 °C; TRAF1 TRAF domain (220-416)
T1 construct: the TRAF1 TRAF domain (amino acid residues 220-416); 6xHis (C); made in house; host or cells: E. coli BL21 (DE3)
T1 sequence (Q13077 220-416): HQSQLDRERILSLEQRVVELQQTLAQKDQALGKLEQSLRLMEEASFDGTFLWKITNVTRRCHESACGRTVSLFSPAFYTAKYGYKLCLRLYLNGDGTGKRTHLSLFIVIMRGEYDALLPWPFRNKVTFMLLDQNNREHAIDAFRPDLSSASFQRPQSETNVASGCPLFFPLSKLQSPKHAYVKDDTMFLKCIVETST
Excerpt: (§1) TRADD is a well-known regulator of the TRAF function. The death domain located at the C-terminus of TRADD interacts with death-domain containing receptors and adaptor proteins including TNFR, receptor interacting protein 1 (RIP1) and Fas-associated death domain protein (FADD), while the N-terminal domain of TRADD (TRADD-N) interacts with the TRAF domain of TRAF2 (Figure 2a). Although several indirect interactions between TRAF1 and TRADD have been described, a direct interaction and direct analyses between TRAF1 and TRADD have not been reported. To directly study their interactions and binding properties, which may provide important clues for understanding TRAF-mediated signaling by TRADD, TRAFs and TRADD-N were purified, and initial interaction testing was performed by Native-PAGE. […] Although TRAF1 did interact with TRADD-N, this interaction was not as tight as with TRAF2 (Figure 2b). To further confirm this association, the interaction between the TRAFs and TRADD-N was further tested by size-exclusion chromatography. […]
The formation of complexes was assayed by native (non-denaturing) PAGE conducted on a PhastSystem (GE Healthcare) with pre-cast 8% to 25% acrylamide gradient gels (GE Healthcare). […] Complex formation was evaluated based on the appearance of newly formed bands or the disappearance of bands that were detected in single control protein bands.

TRAF1 [2] = molecular target: T1, TRAF1; test: Complex formation assay by gel-filtration (size-exclusion) chromatography with TRAF1; assay type: binding; conditions: Superdex 200 10/30, 20 mM Tris pH 8.0, 150 mM NaCl; 1 h at 4 °C; peak shift approximately 16 mL
Excerpt: as §1
Purified TRAF domains and TRADD-N proteins were mixed, incubated at 4 °C for 1 h, and concentrated to 4 to 5 mg/mL using a protein concentration kit (Millipore). […] Complex assembly was evaluated based on the positions of eluted protein peaks monitored at 280 nm followed by SDS-PAGE.

B1: TRADD-N: N-terminal domain of TRADD (TRADD-N, amino acid residues 1-163) (protein)
chain: MAAGQNGHEEWVGSAYLFVESSLDKVVLSDAYAHPQQKVAVYRALQAALAESGGSPDVLQMLKIHRSDPQLIVQLRFCGRQPCGRFLRAYREGALRAALQRSLAAALAQHSVPLQLELRAGAERLDALLADEERCLSCILAQQPDRLRDEELAELEDALRNLK
modifications: left off: His6 (from the vector pET24a), C-terminal, state not stated
For B1, the “Native-PAGE band change on incubation with TRAF1” value (TRAF1 [1]) was “only a small portion of the TRADD-N band disappeared” and the “co-migration with TRAF1 in size-exclusion chromatography / SDS-PAGE” value (TRAF1 [2]) was “TRADD-N did not perfectly co-migrate with TRAF1”.
